Measurements: PMC6310021

Molecular target: purified rat recombinant TG2 protein (transgelin-2) (rat) (UniProt Q5XFX0)
Experiment: SPR

Chain of purified rat recombinant TG2 protein (transgelin-2) (rat) (Q5XFX0 whole entry): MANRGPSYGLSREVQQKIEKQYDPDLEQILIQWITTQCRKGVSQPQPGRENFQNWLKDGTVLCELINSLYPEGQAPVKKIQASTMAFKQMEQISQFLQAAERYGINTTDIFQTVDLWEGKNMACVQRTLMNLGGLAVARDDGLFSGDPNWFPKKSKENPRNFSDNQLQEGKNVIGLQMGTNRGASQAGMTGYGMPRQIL

Kd: 73.3 nM
Substance: ezrin (analyte in Biacore surface plasmon resonance) (from UniProt P31977 1-586) (natural protein)
